Data set [1] concerns the target T1, Ioc4 PWWP domain (Saccharomyces cerevisiae, UniProt Q04213 1-178).
T1 sequence: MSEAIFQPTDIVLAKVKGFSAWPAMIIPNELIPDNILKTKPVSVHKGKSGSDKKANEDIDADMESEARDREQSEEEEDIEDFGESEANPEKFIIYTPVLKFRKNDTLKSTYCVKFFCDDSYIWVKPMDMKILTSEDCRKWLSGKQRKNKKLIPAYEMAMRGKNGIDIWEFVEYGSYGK
Description: EMSA. To be noted: 5% native PAGE (37.5:1) in 0.4x TBE, 2% glycerol, binding buffer, pH and temperature not given (as in …). (In EMSA bound probe runs differently from free probe, usually more slowly.)

In data set [2] the target is T2, Ioc4 full-length (Saccharomyces cerevisiae, UniProt Q04213 1-475).
T2 sequence: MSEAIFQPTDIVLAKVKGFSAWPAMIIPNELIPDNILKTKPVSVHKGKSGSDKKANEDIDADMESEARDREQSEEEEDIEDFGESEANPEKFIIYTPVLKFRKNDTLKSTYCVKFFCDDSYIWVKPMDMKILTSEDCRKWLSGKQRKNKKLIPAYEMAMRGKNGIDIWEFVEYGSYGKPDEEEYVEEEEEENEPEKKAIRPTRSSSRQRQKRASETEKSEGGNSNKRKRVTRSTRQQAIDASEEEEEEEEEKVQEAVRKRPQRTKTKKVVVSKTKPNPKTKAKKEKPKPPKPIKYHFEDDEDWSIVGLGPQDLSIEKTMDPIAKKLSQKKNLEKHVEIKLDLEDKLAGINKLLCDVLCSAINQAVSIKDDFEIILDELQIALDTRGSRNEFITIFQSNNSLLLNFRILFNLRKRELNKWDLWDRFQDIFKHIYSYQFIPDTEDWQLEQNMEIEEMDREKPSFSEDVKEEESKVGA
Description: EMSA. To be noted: 5% native PAGE (37.5:1) in 0.4x TBE, 2% glycerol, binding buffer, pH and temperature not given (as in …).

Data set [3] relates to Isw1b complex (Isw1, Ioc2, Ioc4) (Saccharomyces cerevisiae). Description: EMSA. To be noted: peptide-ligated H3 (T45C), 5% native PAGE (37.5:1) in 0.4x TBE, 2% glycerol, binding buffer, pH and temperature not given (as in …).
For data set [4], the target named is T1, Ioc4 PWWP domain. Description: EMSA; bound equally to the AT-rich substrate; EMSA; 15 fmol NCP (30 fmol unmodified NCP) per reaction; 5% native PAGE (37.5:1) in 0.4x TBE, 2% glycerol; binding buffer, pH and temperature not given (as in cited work). The conditions noted are these: protein: recombinant; tags: N-terminal 6xHis; label: Cy5 on sense strand; blunt.

Data set [5] addresses T1, Ioc4 PWWP domain. Description: EMSA; EMSA; 15 fmol NCP (30 fmol unmodified NCP) per reaction; 5% native PAGE (37.5:1) in 0.4x TBE, 2% glycerol; binding buffer, pH and temperature not given (as in cited work). The conditions noted are these: protein: recombinant; tags: N-terminal 6xHis; label: Cy5 on sense strand; blunt.
Data set [6] concerns the target T2, Ioc4 full-length. Described as above. The conditions noted are these: protein: recombinant; tags: N-terminal 6xHis-MBP; label: Cy5 on sense strand; blunt.
The mark [7] stands for this setting: peptide-ligated H3 (T45C), K36me0, 15 fmol NCP (30 fmol unmodified NCP) per reaction.
Setting [8] is: peptide-ligated H3 (T45C), K36me3, 15 fmol NCP (30 fmol unmodified NCP) per reaction.
The mark [9] stands for this setting: 15 fmol NCP (30 fmol unmodified NCP) per reaction.

For orientation: Kd means the equilibrium constant for the complex coming apart. On to NCP H3K36me0, 147 bp 601, for which the dissociation constant Kd with Ioc4 PWWP domain [1] (setting [7]) amounted to 400 nM; with Ioc4 full-length [2] (setting [7]), 11 nM; in data set [3] (K36me0, 15 fmol NCP (30 fmol unmodified NCP) per reaction), 57.3 nM.

Consider NCP H3K36me3, 147 bp 601, for which the Kd in the data set with Ioc4 PWWP domain [1] (setting [8]) turned out to be 120 nM; in the data set with Ioc4 full-length [2] (setting [8]), 6.7 nM; in data set [3] (K36me3, 15 fmol NCP (30 fmol unmodified NCP) per reaction) it was 4.8 nM.

In the case of NCP unmodified, 147 bp 601, the Kd with Ioc4 PWWP domain [1] (unmodified histones, 15 fmol NCP (30 fmol unmodified NCP) per reaction) came out at 450 nM.

For RNA:DNA hybrid, the figures for the Kd in the data set with Ioc4 PWWP domain [1] (setting [9]) and with Ioc4 full-length [2] (setting [9]) were 760 nM and 55 nM, respectively.

B1: dsRNA 25 bp GC rich (dsRNA)
RNA 1: CCCGGUGCCGAGGCCGCUCAAUUGG
RNA 2: CCAAUUGAGCGGCCUCGGCACCGGG
On to B1, for which, in the data set with Ioc4 PWWP domain [4], the binding result is given as “binds”.

B2: dsRNA 30 bp (AT rich) (dsRNA)
RNA 1: GGCAAGGUCGCUGUUCAAUACAUGCACAGG
RNA 2: CCUGUGCAUGUAUUGAACAGCGACCUUGCC
Consider B2, for which the Kd came to 1800 nM in the data set with Ioc4 PWWP domain [5] and 56 nM in the data set with Ioc4 full-length [6].

B3: dsDNA 30 bp (601-derived EMSA probe) (dsDNA)
DNA 1: GGCAAGGTCGCTGTTCAATACATGCACAGG
DNA 2: CCTGTGCATGTATTGAACAGCGACCTTGCC
Take B3: the equilibrium dissociation constant (Kd) is 810 nM with Ioc4 PWWP domain [5] and 34 nM with Ioc4 full-length [6].

(Values after PMC8934638, “H3K36 methylation and DNA-binding both promote Ioc4 recruitment and Isw1b remodeler function”.)
